Source: the supplement of paper PMC10266784

B1: library; numbered along this chain (parent)
chain: MAAAAAAAAEQQSSNGPVKKSMREKAVERRSVNKEHNSNFKAGYIPIDEDRLHKTGLRGRKGNLAICVIILLFILAVINLIITLVIWAVIRIGPNGCDSMEFHESGLLRFKQVSDMGVIHPLYKSTVGGRRNENLVITGNNQPIVFQQGTTKLSVENNKTSITSDIGMQFFDPRTQNILFSTDYETHEFHLPSGVKSLNVQKASTERITSNATSDLNIKVDGRAIVRGNEGVFIMGKTIEFHMGGNMELKAENSIILNGSVMVSTTRLPSSSSGDQLGSGDWVRYKLCMCADGTLFKVQVTSQNMGCQISDNPCGNTH

Variants of: B1
Assay: SGCB cell-surface expression functional score (HA stain, bin4 vs bin1, normalised to synonymous) (log10 ratio); higher = more cell-surface SGCB (functional)
How it was run: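 Codon-saturation libraries of HA-tagged, YFP-fused human beta-sarcoglycan were lentivirally transduced at MOI <0.1 into HEK293 cells stably expressing alpha-, gamma- and delta-sarcoglycan. YFP-positive cells were sorted after 72 hours, grown 5–7 days, stained on ice with Alexa Fluor 647 anti-HA, fixed, sorted into four 5% intensity bins and amplicon-sequenced. The functional score is the log ratio of highest-bin to lowest-bin variant frequency, taken as the median over codons and duplicate transductions. Synonymous variants were scaled per section to mean 0, SD 0.5.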

SGCB cell-surface expression functional score (log10), by site and new letter:
T205: E -0.93 | L -0.11 | K -2.61 | S -0.16 | Q -2.06 | N -1.69 | I -0.16 | P -0.48 | R -1.93 | W -2.65 | Y -1.37 | D -1.46 | H -0.99 | C -0.21 | F -0.9 | M -0.07 | G -1.7 | A -0.17 | V -0.05
V200: A -0.04 | Q -0.73 | F -1.83 | W -1.75 | E -2.93 | M -0.63 | I 0.17 | N -3.23 | H -2.51 | R -1.87 | L -0.58 | Y -1.16 | K -2.94 | D -1.23 | C -1.14 | T -2.11 | G -1.65 | S -1.59 | P -1.16
I208: C -1.23 | A -1.44 | D -1.1
E206: Q -0.93 | K -0.41 | F 0.19 | V 0.45 | N 0.66 | T 0.4 | W 0.91 | Y -0.12 | L -0.27 | M 1.59 | D 0.33 | C -0.71 | G -0.37 | R -0.66 | H 0.42 | A 1.04 | I -0.47 | P -0.42 | S 0.16
N199: Q 0.86 | T 0.07 | A -0.02 | W 1.05 | H 0.18 | C -0.28 | Y -0.67 | P -1.11 | K 0.02 | V 0.22 | R -0.3 | I -0.28 | S 0.26 | D 0.38 | M -0.42 | G -0.38 | F 0.74 | E -0.68 | L -0.05
Q201: H 0.31 | S -0.35 | R 0.39 | A 0.62 | T -0.09 | C 0.43 | M 1.02 | K 0.07 | F 0.62 | G 0.18 | L -0.33 | N -0.7 | E 0.21 | V 0.47 | Y -0.31 | I 0.46 | D -0.56 | W -0.32 | P -0.23
L198: S -1.39 | Q -1.42 | W -0.6 | V -0.55 | T -2.13 | Y -1.67 | R -2.21
R207: S -1.22 | P -1.15 | G -1.44 | E -2.46 | Y -0.73 | Q -0.74 | C -0.91 | M 0.13 | T -0.69 | H -0.5 | W -0.06 | L -0.39 | V -0.64 | K -0.81 | A -1.05 | I -1.03 | N -0.12 | D -1.43 | F -1.57
K202: S 0.02 | G -0.02 | N -0.53 | Q 0.17 | E -0.96 | L 0.04 | P -0.97 | I -0.27 | M 0.2 | W -0.14 | A -0.2 | R 0.09 | F -1.04 | V -0.17 | C -0.1 | Y -0.69 | D -1.97 | T 0.12 | H -1.29
A203: L 0 | W -0.3 | R -1.46 | Q -0.5 | H -1.81 | K -1.01 | S -1.01 | T -0.59 | D -1.81 | G -1.02 | F -0.62 | V -0.13 | E -0.01 | Y -2.13 | P -0.92 | M 0.612 | C 0.38 | I -0.24
S204: P -0.83 | A -0.04 | F -0.03 | Y -0.38 | T -0.17 | C -0.16
